This note sets out measurements from patent US20240417446A1 (US Dept. of Health and Human Services, published 2024).

For assay [1], the target named is T1, SARS-CoV-2 spike trimer (40589-V08H4) (SARS-CoV-2, UniProt P0DTC2 14-1213).
T1 construct: extracellular domain
As to the kind of experiment: ELISA, A450, nanobody at 10ug/mL, Spike Trimer coated at 2 ug/mL.

Assay [2] deals with SARS-CoV-2 Omicron BA.1 variant spike protein on pseudovirus (SARS-CoV-2). Nature of the assay: cell-based or functional assay.
Assay [3] has as its target SARS-CoV-2 Gamma variant spike protein on pseudovirus (SARS-CoV-2, UniProt P0DTC2 14-1273). Nature of the assay: cell-based or functional assay.
Assay [4] concerns the target SARS-CoV-2 Omicron BA.4/BA.5 variant spike protein on pseudovirus (SARS-CoV-2). Nature of the assay: cell-based or functional assay.
The target of assay [5] is SARS-CoV-2 Alpha variant spike protein on pseudovirus (SARS-CoV-2, UniProt P0DTC2 14-1273). Nature of the assay: cell-based or functional assay.
For assay [6], the target named is SARS-CoV-2 Lambda variant spike protein on pseudovirus (SARS-CoV-2, UniProt P0DTC2 14-1273). As to the kind of experiment: cell-based or functional assay.
Assay [7] addresses SARS-CoV-2 Omicron BA.2 variant spike protein on pseudovirus (SARS-CoV-2). As to the kind of experiment: cell-based or functional assay.

B1: NCI-CoV-CG2G2 (VHH)
VHH: AVQLVESGGGSVPPGGSLTLSCTVSDNIFRTYAVGWFRQAPEKRCQWIATLNADESTEYNVAVTGRFTISRDNSGRSVYLQMDNLNSEDTAIYYCASLARKWSCHDSWGRGTQVTVSS
Take B1: in assay [1], the “ELISA (A450) at 10ug/mL” value was found to be 2.7.

B2: NCI-CoV-CGH3 (VHH)
VHH: AVQLVESGGGLVQPGGSLRLSCAASGFTFSSYAMGWVRQAPGKGLEWISAINSGGDIRYYADSVKGRFTISRDNAKNTLYLQMNSLKPEDTAVYYCATDDEILSYGLGTSFDYWGQGTQVTVSS
Regarding B2, in assay [1], the “ELISA (A450) at 10ug/mL” value was found to be 0.14.

B3: NCI-CoV-S4A9 (VNAR)
VNAR: ARVDQTPRSVTKETGESLTINCVLRDASYALGSTCWYRKKSGSTNEESISKGGRYVETVNSGSKSFSLRINDLTVEDGGTYRCGVQSRWGAVPKLCSNYAACGDGTAVTVN
With B3, the “ELISA (A450) at 10ug/mL” value in assay [1] amounted to 1.43.

B4: NCI-CoV-CGF10 (VHH)
VHH: AVQLVESGGGLVQPGGSLRLSCAASGFTFSSYGMHWVRQAPGKGLERVAGINWDGSNSYYTETVKGRFTISRDNAKNTAYLQMNSLKPEDTAMYYCRTLILDSDCDPGSTYRYAWGQGTQVTVSS
For B4, the “ELISA (A450) at 10ug/mL” value in assay [1] was determined as 1.2.

B5: NCI-CoV-S2A9 (VNAR)
VNAR: ARVDQTPRSVTKETGESLTINCVLRDASYALGRTCWYRKKSGSTNEESISKGGRYVETVNSGSKSFSLRINDLTVEDGGTYRCGVSTPWSCDYGPLCFYAACGDGTVVTVN
As for B5, the “ELISA (A450) at 10ug/mL” value in assay [1] worked out at 0.53. Also, the “IC50 for neutralizing pseudovirus” value in assay [2] came out at 2250 nM; in assay [3], 1800 nM; in assay [4] it was 3730 nM; in assay [5], 1820 nM; in assay [6], 4570 nM; in assay [7], 2250 nM.

B6: NCI-CoV-S2G8 (VNAR)
VNAR: ARVDQTPQTITKETGESLTINCVLRDSNCPLSNTYWYRKKSGSTNEESISKGGRYVETVNSGSKSFSLRINDLTVEDSGTYRCKVRTHWSICWEMGLEPNYDVYGGGTVVTVN
In the case of B6, the “ELISA (A450) at 10ug/mL” value in assay [1] came to 0.61.

B7: NCI-CoV-CL3H4 (VHH)
VHH: DVQLVESGGGAVKPGGSLTLTCTVQEGSRNCVGWFRQGSGKDRQAVAMINGNGGTTNYDDRVKGRFQISRDGSLVHLRMNDVKLGDTDIYYCRQGQTYDCWGGTWTDSGWGQGTQVTVSS
On to B7, for which, in assay [1], the “ELISA (A450) at 10ug/mL” value was 0.3.

B8: NCI-CoV-CLA2 (VHH)
VHH: QVQLVESGGGSVQPGGSLRLSCAVSGYTSSSYCFGWFRQAPGKDREGIIAMEPGNTYTAGAVKGRFTISRDNAKNMVYLQMNSLKPDDTAMYYCAASPYPGTWLNPDLFDTWGQGTQVTVSS
Take B8: in assay [1], the “ELISA (A450) at 10ug/mL” value was 0.66.

B9: NCI-CoV-S3A10 (VNAR)
VNAR: ARVDQTPRSVTKETGESLTINCVLRDASYALGSTCWYRKKSGSTNEESISKGGRYVETVNSGSKSFSLRINDLTVEDGGTYRCGRIQNTKAVLLPCVYAACGDGTVVTVN
On to B9, for which the “ELISA (A450) at 10ug/mL” value in assay [1] turned out to be 1.34.
